Experimental data published in patent US20120107364A1 (ACTGEN, published 2012).

Columns and labels:
Test in all cases: flow cytometry on Ba/F3 cells expressing the truncated PODXL2
[1] = target: T1, PODXL2, positions 1 to 390 (human, UniProt O00592 23-422)
T1 construct: One of the 14 C-terminal truncations in 10-residue steps; Expressed on Ba/F3 cells; also called R390
T1 sequence: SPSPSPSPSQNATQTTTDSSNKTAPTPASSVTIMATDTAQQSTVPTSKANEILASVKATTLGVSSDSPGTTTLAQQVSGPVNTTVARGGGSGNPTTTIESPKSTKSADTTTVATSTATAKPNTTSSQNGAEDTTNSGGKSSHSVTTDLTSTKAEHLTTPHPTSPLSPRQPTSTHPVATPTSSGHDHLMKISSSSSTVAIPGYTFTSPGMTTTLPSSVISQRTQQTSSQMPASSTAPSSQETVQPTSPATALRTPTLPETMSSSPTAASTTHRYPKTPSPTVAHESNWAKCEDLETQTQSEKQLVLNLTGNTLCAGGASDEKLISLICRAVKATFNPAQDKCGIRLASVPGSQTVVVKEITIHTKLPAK
Protocol: (§1) To each sample of the cell suspension, 50 μl of the hybridoma culture supernatant or 2-μg/ml of the purified antibody (hereinafter, referred to as an “antibody solution”) was added, and the antibody was reacted with the cells. As an isotype control of the antibody solution, a wash buffer containing 2 μg/ml of each of mouse IgG1 (BioLegend, 400412), mouse IgG2a (BioLegend, 400224), and mouse IgG2b (BioLegend, 400324) was used. The hybridoma culture supernatant was reacted with the target cells at room temperature for 30 minutes, followed by centrifugation at 700×g for 2 minutes. Then, a culture supernatant was removed. Further, 100 μl of a wash buffer was added, followed by centrifugation at 700×g for 2 minutes again. A supernatant was removed. Then, the cells were washed.
(§2) Next, to the cell pellets after the washing, 50 μl of Goat anti-mouse IgG, F(ab′) 2-PE (PE=phycoerythrin, Beckman Coulter, IM0855) diluted 200-fold with a wash buffer was added as a secondary antibody for detection, and reacted in the dark at room temperature for 30 minutes. The reaction was followed by centrifugation at 700×g for 2 minutes. A supernatant was removed. Further, 100 μl of a wash buffer was added, followed by centrifugation at 700×g for 2 minutes again. A supernatant was removed. Then, the cells were washed. Thereafter, the cells were suspended in an appropriate amount of a wash buffer. The reactivity between the antibody and the cells was analyzed by a flow cytometer (Beckman Coulter, FC500 MPL).
(§3) Thereafter, by the same method as in Example 1 (4) (the virus packaging and thereafter), Ba/F3 cells containing the PODXL2 gene sequences of various chain lengths were prepared. Further, by the same method as in Example 4, the reactivity between the ACT36-27_{—}5D1 antibody and the Ba/F3 cells expressing the PODXL2 molecules of various chain lengths was analyzed by a flow cytometer (FIG. 10).

[2] = target: T2, PODXL2, positions 1 to 360 (human, UniProt O00592 23-392)
T2 construct: One of the 14 C-terminal truncations; Expressed on Ba/F3 cells; also called R360
T2 sequence: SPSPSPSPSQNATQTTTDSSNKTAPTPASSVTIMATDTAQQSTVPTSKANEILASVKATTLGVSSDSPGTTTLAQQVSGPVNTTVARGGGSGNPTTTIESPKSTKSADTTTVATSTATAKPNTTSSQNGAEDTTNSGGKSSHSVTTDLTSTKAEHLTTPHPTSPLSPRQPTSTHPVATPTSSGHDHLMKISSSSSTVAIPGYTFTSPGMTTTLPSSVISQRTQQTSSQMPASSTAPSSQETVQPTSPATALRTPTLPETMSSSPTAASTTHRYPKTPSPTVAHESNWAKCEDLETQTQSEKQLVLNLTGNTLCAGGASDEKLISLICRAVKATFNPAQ
Protocol: as §1, §2, §3

[3] = target: T3, PODXL2, positions 1 to 410 (human, UniProt O00592 23-442)
T3 construct: Encoded as positions 1-410 in pMX-SST and expressed on Ba/F3 cells; The vector-encoded part is not described; also called R410
T3 sequence: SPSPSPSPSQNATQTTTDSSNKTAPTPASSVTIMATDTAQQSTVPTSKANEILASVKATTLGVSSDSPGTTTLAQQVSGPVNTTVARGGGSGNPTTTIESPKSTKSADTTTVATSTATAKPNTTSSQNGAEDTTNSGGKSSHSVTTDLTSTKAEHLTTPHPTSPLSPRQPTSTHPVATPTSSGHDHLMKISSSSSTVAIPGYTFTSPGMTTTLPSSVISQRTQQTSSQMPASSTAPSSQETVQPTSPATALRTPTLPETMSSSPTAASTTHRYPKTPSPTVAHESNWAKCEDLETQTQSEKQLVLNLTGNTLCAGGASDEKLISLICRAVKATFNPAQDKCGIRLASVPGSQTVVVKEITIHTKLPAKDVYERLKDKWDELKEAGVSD
Protocol: as §1, §2, §3

[4] = target: T4, PODXL2, positions 1 to 320 (human, UniProt O00592 23-352)
T4 construct: One of the 14 C-terminal truncations; Expressed on Ba/F3 cells; also called R320
T4 sequence: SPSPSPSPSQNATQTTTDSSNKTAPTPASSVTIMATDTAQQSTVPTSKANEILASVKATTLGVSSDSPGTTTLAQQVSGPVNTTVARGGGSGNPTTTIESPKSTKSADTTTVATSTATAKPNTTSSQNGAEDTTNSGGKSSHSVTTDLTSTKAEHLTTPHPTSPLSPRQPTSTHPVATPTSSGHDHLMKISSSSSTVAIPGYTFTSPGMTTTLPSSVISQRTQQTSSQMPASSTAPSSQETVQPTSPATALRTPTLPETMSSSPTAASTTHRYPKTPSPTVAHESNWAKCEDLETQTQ
Protocol: as §1, §2, §3

[5] = target: T5, PODXL2, positions 1 to 340 (human, UniProt O00592 23-372)
T5 construct: One of the 14 C-terminal truncations; Expressed on Ba/F3 cells; also called R340
T5 sequence: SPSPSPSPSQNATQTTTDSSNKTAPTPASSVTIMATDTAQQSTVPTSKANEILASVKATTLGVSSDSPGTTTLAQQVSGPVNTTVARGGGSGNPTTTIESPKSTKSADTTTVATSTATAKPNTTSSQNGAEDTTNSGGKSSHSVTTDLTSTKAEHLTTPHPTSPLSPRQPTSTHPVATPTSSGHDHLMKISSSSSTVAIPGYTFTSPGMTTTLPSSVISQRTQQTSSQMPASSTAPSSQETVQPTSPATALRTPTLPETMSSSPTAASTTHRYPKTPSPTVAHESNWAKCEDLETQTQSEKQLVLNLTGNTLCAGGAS
Protocol: as §1, §2, §3

B1: ACT36-27-5D1 antibody (antibody, V domains shown)
VH: EVQLQQSGPELVKPGASVKMSCKASGYTFTSYVMHWVKQKPGQGLEWIGYIHPYNDGIKYNEKFKGKATLTSDKSSSTAYMDLSSLTSEDSAVYYCARSWDWYFDVWAAGTTVTVSS
VL: QIVLTQSPAIMSASPGEKVSMTCSASSSVSYMHWYQQKSGTSPKRWIYDTSKLASGVPARFSGSGSGTSYSLTISSMEAEDAATYYCLQWSSNPPTFGGGTKLE
notes: also called anti-PODXL2 antibody ACT36-27-5D1; anti-ACT36-27-5D1 monoclonal antibody
B1: no binding [1]; no binding [2]; binds [3]. B1: no binding [4]; no binding [5].
